Data published in patent publication US10052365B2, “Methods and products relating to GSK3β regulation” (University of Vermont and State Agricultural College, priority 2008, dated 2018).
“Also recorded” adds a separate entry of the source. Values belong to the molecule of their own block, whether it stands above or below them. Where no end group is shown, it is not given here. [ ]: non-standard residue; d: D form. pT = C[C@@H](OP(=O)(O)O)[C@H](N)C(=O)O; pS = N[C@@H](COP(=O)(O)O)C(=O)O

Columns and labels:
GSK3β-T^390A mutant = molecular target: T1, GSK3β-T^390A mutant (Homo sapiens, UniProt P49841, T390A); assay: GSK3β activity after preincubation with active p38 MAPK or Akt; format: biochemical; settings: preincubated 15 minutes at 30° C. with 500 ng kinase; FIG. 3F
T1 construct: made in house
T1 sequence (P49841 whole entry T390A): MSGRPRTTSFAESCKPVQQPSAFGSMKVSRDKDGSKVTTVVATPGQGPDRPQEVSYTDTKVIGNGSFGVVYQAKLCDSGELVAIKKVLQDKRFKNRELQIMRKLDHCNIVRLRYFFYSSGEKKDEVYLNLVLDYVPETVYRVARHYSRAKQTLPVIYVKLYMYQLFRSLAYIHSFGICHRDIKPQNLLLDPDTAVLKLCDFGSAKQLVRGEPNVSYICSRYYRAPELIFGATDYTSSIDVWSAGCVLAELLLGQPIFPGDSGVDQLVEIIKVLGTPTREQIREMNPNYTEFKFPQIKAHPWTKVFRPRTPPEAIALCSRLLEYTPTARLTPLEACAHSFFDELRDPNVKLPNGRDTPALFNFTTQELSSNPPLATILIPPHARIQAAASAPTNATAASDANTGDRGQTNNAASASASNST
Procedure: (§1) Active GST-GSK3β and GST-GSK3β-T^43A and GST-GSK3β-T^390 mutants were expressed and purified as described in (29). The specific activity of the wildtype and the mutants was determined using the GSM substrate peptide (Upstate, Lake Placid, N.Y.) and were as follows: GST-GSK3β (91 μmol/μg×min) and GST-GSK3β-T^43A (53 μmol/μg×min) and GST-GSK3β-T^390A (65 μmol/μg×min). In vitro GSK3β kinase assays were performed by incubating purified active wildtype GST-GSK3β or GST-GSK3β-T^43A and GST-GSK3β-T^390A mutants (400 ng) at 30° C. for 10 minutes in kinase buffer supplemented with 1 mM ATP containing [γ-^32P] ATP and GSM substrate peptide (62.5 μM) (Upstate, Lake Placid, N.Y.). Reactions were terminated by spotting onto P81 filters. Filters were washed extensively and counted in a scintillation counter. To examine the effect of p38 MAPK and Akt on GSK3β activity, purified active GSK3β or mutants were preincubated for 15 minutes at 30° C. with 500 ng recombinant active p38 MAPK or active Akt (Cell Signaling, Beverly, Mass.) prior to performing the GSK3β activity assay as described above.

GSK3β-T^43A mutant = molecular target: T2, GSK3β-T^43A mutant (Homo sapiens, UniProt P49841, T43A); assay: as above; format: biochemical; settings: preincubated 15 minutes at 30° C. with 500 ng kinase; FIG. 3E
T2 construct: made in house
T2 sequence (P49841 whole entry T43A): as the sequence (P49841 whole entry T390A) above, with T43A, A390T counted along it
Procedure: as §1

wild-type GSK3β = molecular target: T3, wild-type GSK3β (Homo sapiens, UniProt P49841); assay: as above; format: biochemical; settings: preincubated 15 minutes at 30° C. with 500 ng kinase; FIG. 3D
T3 construct: made in house
T3 sequence (P49841 whole entry): as the sequence (P49841 whole entry T390A) above, with A390T counted along it
Procedure: as §1

GSK3α = GSK3α (Homo sapiens, UniProt P49840); assay: In vitro GSK3α kinase assay after preincubation with activated p38 MAPK; format: biochemical; settings: pre-incubated 15 min; FIG. 12
GSK3α, sequence (P49840 whole entry, species assumed): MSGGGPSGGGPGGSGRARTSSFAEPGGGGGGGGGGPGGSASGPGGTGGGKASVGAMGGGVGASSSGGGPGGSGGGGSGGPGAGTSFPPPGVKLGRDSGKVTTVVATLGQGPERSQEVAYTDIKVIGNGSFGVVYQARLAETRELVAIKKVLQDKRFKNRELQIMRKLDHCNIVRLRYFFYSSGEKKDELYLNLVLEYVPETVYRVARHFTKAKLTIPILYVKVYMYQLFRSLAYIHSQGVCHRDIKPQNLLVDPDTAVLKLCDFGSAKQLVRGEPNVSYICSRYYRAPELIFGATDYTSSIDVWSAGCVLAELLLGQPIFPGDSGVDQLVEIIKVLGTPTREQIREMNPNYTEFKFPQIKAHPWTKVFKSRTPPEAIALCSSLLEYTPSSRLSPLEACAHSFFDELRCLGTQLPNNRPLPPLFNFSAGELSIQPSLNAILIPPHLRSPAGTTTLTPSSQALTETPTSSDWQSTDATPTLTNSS
Procedure: Recombinant kinase-active GSK3α was pre-incubated in the reaction buffer alone (GSKα), with activated p38 MAPK or activated Akt (15 min). In vitro GSK3α kinase assays were then performed using GSM as the substrate. Error bars represent SD (n=3).

GST-GSK3β [1] = molecular target: T4, GST-GSK3β (Homo sapiens, UniProt P49841); assay: In vitro GSK3β kinase assay with inhibitory peptides (GSM substrate); format: biochemical; settings: for GSK3β activity in the presence of peptide: in vitro kinase reaction, FIG. 3G
T4 construct: made in house
T4 sequence (P49841 whole entry): as the sequence (P49841 whole entry T390A) above, with A390T counted along it
Procedure: as §1
For peptide inhibition assays, Phospho-S^9 (GRPRTTS(PO3H2)FAE) (SEQ ID NO:95) (20). Phospho-[…] (RIQAAAST(PO3H2)PTN) (SEQ ID NO:7) and non-phospho-T^390 (RIQAAASTPTN) (SEQ ID NO:96) peptides were synthesized and purified by UVM protein Core Facility. In vitro kinase assays were performed with purified GST-GSK3β (400 ng) in Kinase buffer supplement with 1 mM ATP containing [γ-^32P] ATP and the indicated concentrations of GSM and inhibitory peptide.

[2] = system: phospho-Ser^9 GSK3β in 293T cells; assay: Western blot of phospho-Ser^9 GSK3β in treated 293T cells; format: cell-based; settings: 40 minutes, SB203580 5 μM, Wortmanin 1 μM, FIG. 7
Procedure: (§2) Thymocytes were isolated from wildtype, Rag^−/− or MKK6(Glu) transgenic mice.
(§3) Whole cell extracts were prepared in Triton lysis buffer (TLB) as previously described (25, 26). Nuclear extracts were made from cells as previously described (27). Immunoprecipitations and Western blotting was performed as described in (8). Anti-Akt, anti-p38 MAPK, anti-Lef, anti-c-Myc and anti-Histone (Santa Cruz Biotechnology, Santa Cruz, Calif.), anti-GSK3β, anti-β-catenin, anti-phospho-p38 MAPK and antiphospho-S^9 (Cell Signaling, Beverly, Mass.) and Anti-Flag (Stratagene, La Jolla, Calif.) were used for Western blot analysis. […] Anti-Akt, anti-p38 MAPK and Anti-GSK3β were used for immunoprecipitations. Anti-rabbit-HRP, anti-mouse-HRP (Jackson ImmunoResearch Laboratories, West Grove, Pa.) and anti-goat-HRP (Santa Cruz Biotechnology, Santa Cruz, Calif.) were used as secondary antibodies.

GSM substrate peptide = assay: Specific activity of active GST-GSK3β wildtype and mutants; format: biochemical
Procedure: as §1

p38 MAPK = settings: SB203580 2.5 μM
Procedure: The reactions were terminated after 30 min at 30° C. by addition of SDS-PAGE sample buffer, separated by SDS-PAGE and transferred to nitrocellulose. Protein was visualized by staining with PonceauS and incorporated ^32P was visualized by autoradiography. In specific experiments, whole cell extracts were first depleted of Akt prior to p38 MAPK immunoprecipitation by being pre-incubated with anti-Akt antibody prebound to protein A-Sepharose followed by one incubation with protein A-sepharose alone.

[3] = system: phosphorylation of GSK3β at Ser^389; assay: Western blot of phospho-Ser^389 in mouse GSK3β-transfected 293T cells; format: cell-based; settings: FIG. 4D
Procedure: (§4) Thymocytes were isolated from wildtype, Rag^−/− or MKK6(Glu) transgenic mice. 293T cells were transiently transfected with the indicated expression constructs using calcium phosphate. When specified, 293T cells were treated with SB203580 (5 μM) and Wortmanin (1 μM) (Calbiochem, San Diego, Calif.). Wildtype, GSK3α^−/− and GSK3β^−/− ES cells (17), as well as WT and MKK3^−/−MKK6^−/− MEF (22) have been previously described, and were also treated with SB203580 as described above for the indicated periods of time. For in vivo inhibition of p38 MAPK, wildtype mice were intraperitoneally (i.p.) injected with SB203580 or vehicle alone, and after 18 hours brain and thymocytes were harvested to prepare whole cell lysates.
(§5) Whole cell extracts were prepared in Triton lysis buffer (TLB) as previously described (25, 26). Nuclear extracts were made from cells as previously described (27). Immunoprecipitations and Western blotting was performed as described in (8). Anti-Akt, anti-p38 MAPK, anti-Lef, anti-c-Myc and anti-Histone (Santa Cruz Biotechnology, Santa Cruz, Calif.), anti-GSK3β, anti-β-catenin, anti-phospho-p38 MAPK and antiphospho-S^9 (Cell Signaling, Beverly, Mass.) and Anti-Flag (Stratagene, La Jolla, Calif.) were used for Western blot analysis. The phospho-S^389 GSK3β antibody was made by Proteintech, Chicago, Ill., using N-C-ARIQAAA(phos-S)PPANATA (SEQ ID NO:87) for immunization. […]

[4] = system: phosphorylation of endogenous GSK3β at Ser^389; assay: Western blot of phospho-Ser^389 of endogenous GSK3β in MEFs and ES cells; format: cell-based, mouse; settings: FIG. 4E-F
Procedure: as §4, §5

β-catenin = assay: Western blot of β-catenin in 293T cells transfected with GSK3β, p38 and MKK6; format: cell-based; settings: FIG. 4D
Procedure: as §4, §5

phospho-Ser^389 GSK3β = assay: In vivo inhibition of p38 MAPK, phospho-Ser^389 GSK3β in thymocytes and brain; set-up: species or system mouse; settings: wildtype mice i.p., 18 hours, FIG. 4L
Procedure: as §2, §3

GST-GSK3β [5] = molecular target: T4, GST-GSK3β; settings: references 20, 21; cited from earlier work

- effect on GSK3β activity (GSK3β-T^390A mutant): not
- effect on GSK3β activity (GSK3β-T^43A mutant): inhibited
- effect on GSK3β activity (wild-type GSK3β): inhibited
Molecule: p38 MAPK: recombinant active p38 MAPK (Cell Signaling)
- effect on GSK3α activity (GSK3α): did not affect; also recorded: does not inhibit

- GSK3β activity in the presence of peptide (GST-GSK3β [1]): inhibited GSK3β activity
Molecule: RIQAAAST(PO3H2)PTN (RIQAAAS[pT]PTN) [phospho-Thr^390 peptide]
- inhibition of GSK3β activity compared with phospho-Ser^9 peptide (GST-GSK3β [1]; various concentrations of peptides, FIG. 3H-J): as efficiently as the phospho-Ser^9 peptide

Molecule: COC[C@H]1OC(=O)c2coc3c2[C@@]1(C)C1=C(C3=O)[C@@H]2CCC(=O)[C@@]2(C)C[C@H]1OC(C)=O [Wortmanin]
- phosphorylation of Ser^9 of GSK3β [2]: impaired

Molecule: GST-GSK3β: purified active wildtype GST-GSK3β fusion protein
- specific activity (GSM substrate peptide): 91 µmol/µg/min

Molecule: GST-GSK3β-T^43A: purified active GST-GSK3β T^43A mutant
- specific activity (GSM substrate peptide): 53 µmol/µg/min

Molecule: C[S+]([O-])c1ccc(-c2nc(-c3ccncc3)c(-c3ccc(F)cc3)[nH]2)cc1 (stereo not drawn) [SB203580]
- phosphorylation of GSK3β by purified recombinant activated p38 MAPK (p38 MAPK; FIG. 2E): blocked
- phosphorylation of recombinant catalytically-inactive GSK3β by immunoprecipitated p38 MAPK (p38 MAPK; p38 MAPK from MKK6 thymocytes or MKK6-transfected 293T cells, FIG. 2C): blocked
- phosphorylation of Ser^9 of GSK3β [2]: not affected
- phosphorylation of Ser^389 [3]: abrogated
- phosphorylation of endogenous GSK3β at Ser^389 ([4]; embryonic stem (ES) cells): inhibited
- phosphorylation of endogenous GSK3β at Ser^389 ([4]; wild-type mouse embryonic fibroblasts (MEFs)): inhibited
- amount of β-catenin (β-catenin): decreased
- levels of phospho-Ser^389 GSK3β (phospho-Ser^389 GSK3β; brain): reduced
- levels of phospho-Ser^389 GSK3β (phospho-Ser^389 GSK3β; thymocytes): reduced

- GSK3β activity in the presence of peptide (GST-GSK3β [1]): did not
Molecule: RIQAAASTPTN [unphosphorylated-Thr^390 peptide, reference compound]

Molecule: GST-GSK3β-T^390A: purified active GST-GSK3β T^390A mutant
- specific activity (GSM substrate peptide): 65 µmol/µg/min

Molecule: GRPRTTS(PO3H2)FAE (GRPRTT[pS]FAE) [phospho-Ser^9 peptide]
- inhibition of GSK3β in vitro (GST-GSK3β [5]): specifically inhibits GSK3β in vitro

- effect on GSK3β activity (GSK3β-T^390A mutant): inhibited
- effect on GSK3β activity (GSK3β-T^43A mutant): inhibited
- effect on GSK3β activity (wild-type GSK3β): inhibited
B1: Akt: recombinant active Akt (Cell Signaling) (protein)
chain: MNDVAIVKEGWLHKRGEYIKTWRPRYFLLKNDGTFIGYKERPQDVDQRESPLNNFSVAQCQLMKTERPRPNTFIIRCLQWTTVIERTFHVETPEEREEWATAIQTVADGLKRQEEETMDFRSGSPSDNSGAEEMEVSLAKPKHRVTMNEFEYLKLLGKGTFGKVILVKEKATGRYYAMKILKKEVIVAKDEVAHTLTENRVLQNSRHPFLTALKYSFQTHDRLCFVMEYANGGELFFHLSRERVFSEDRARFYGAEIVSALDYLHSEKNVVYRDLKLENLMLDKDGHIKITDFGLCKEGIKDGATMKTFCGTPEYLAPEVLEDNDYGRAVDWWGLGVVMYEMMCGRLPFYNQDHEKLFELILMEEIRFPRTLGPEAKSLLSGLLKKDPTQRLGGGSEDAKEIMQHRFFANIVWQDVYEKKLSPPFKPQVTSETDTRYFDEEFTAQMITITPPDQDDSMECVDSERRPHFPQFSYSASGTA
